Results on five substances are retold here after paper PMC3325594 (International Journal of Toxicology, 2012).

For one data set, the system named is female mice. Briefly: 2-year carcinogenicity study, survival rates in female mice. It counts as in vivo. Particulars: 12.5 IU/kg.
In a further data set the test system is female rats. Nature of the data set: 2-year carcinogenicity study, survival rates in female rats. It counts as in vivo. Particulars: 5 IU/kg.
Data set [1] deals with insulin-like growth factor 1 receptor (IGF-1R). Particulars: in vitro; cited from earlier work.
Another data set concerns mammalian cell lines. Particulars: cited from earlier work.
For the next data set, the system named is insulin receptor (IR). Particulars: in vitro; cited from earlier work.
Another data set concerns rats. The settings on record: 12-month toxicity study; cited from earlier work.
Data set [2] deals with insulin receptor (IR) signaling. The settings on record: cited from earlier work.
Data set [3] relates to mammary gland of young female rats. The settings on record: 26-week toxicity study; cited from earlier work.

On to “NPH: neutral protamine Hagedorn (NPH) insulin, comparator group”, for which the Survival rate with female mice (week 80) is on record as 56%; with female mice (week 81) it was 56%; with female mice (week 82), 56%; with female mice (week 85), 50%; in the data set on female rats (week 80), 72%; in the data set on female rats (week 81), 72%. Moreover, the Survival rate with female rats (week 82) was 72%; in the data set on female rats (week 83), 70%; in the data set with female rats (week 84), 70%. For the same substance, the “Survival, animals alive” value is given as 22 n in the data set with female mice (week 88, of 50 initial animals) and 22 n in the data set on female mice (week 89, of 50 initial animals).
Regarding [Asp^B10] insulin, the “Affinity toward IGF-1R compared to regular human insulin” value in data set [1] is given as “higher affinity”. Also, in the data set with mammalian cell lines, the “Proliferation rate in mammalian cell lines compared to regular human insulin” value was “higher proliferation rate”. In the data set on insulin receptor (IR), the “Affinity toward the insulin receptor (IR) compared to regular human insulin” value is “higher affinity” and the “Occupancy time at the IR compared to regular human insulin” value is “prolonged occupancy time”. The “Incidence of mammary tumors” value with rats is “higher incidence of mammary tumors”.
Regarding “[Gly^A21, des-Thr^B30]-human insulin [M2]”, the “In vitro metabolic and mitogenic profiles” value in data set [2] is given as “comparable with human insulin”.
For [Gly^A21] human insulin [M1], the “In vitro metabolic and mitogenic profiles” value in data set [2] is listed as “comparable with human insulin”.
insulin detemir: the “Proliferative effect in the mammary gland” value in data set [3] was “modest proliferative effect”.
